Results as given in patent publication US20040062769A1 (US Dept. of Health and Human Services, published 2004).

Biological target: T1, FCR3.varCSA protein (Plasmodium falciparum (FCR3 strain), surface iodinated (125I) in the thrombomodulin bead capture)
T1 construct: also called FCR3-CSA var
Assay: cytoadhesion of FCR3-CSA PRBCs to CHO-745 cells expressing CD36 (Table 1)

B1: human CD36 expressed on CHO-745 cells (receptor)
chain: GCDRNCGLIAGAVIGAVLAVFGGILMPVGDLLIQKTIKKQVVLEEGTIAFKNWVKTGTEVYRQFWIFDVQNPQEVMMNSSNIQVKQRGPYTYRVRFLAKENVTQDAEDNTVSFLQPNGAIFEPSLSVGTEADNFTVLNLAVAAASHIYQNQFVQMILNSLINKSKSSMFQVRTLRELLWGYRDPFLSLVPYPVTTTVGLFYPYNNTADGVYKVFNGKDNISKVAIIDTYKGKRNLSYWESHCDMINGTDAASFPPFVEKSQVLQFFSSDICRSIYAVFESDVNLKGIPVYRFVLPSKAFASPVENPDNYCFCTEKIISKNCTSYGVLDISKCKEGRPVYISLPHFLYASPDVSEPIDGLNPNEEEHRTYLDIEPITGFTLQFAKRLQVNLLVKPSEKIQVLKNLKRNYIVPILWLNETGTIGDEKANMFRSQVTGKINLLGLIEMILLSVGVVMFVAFMISYCACRSKTIK
notes: whole, on cells; also called CHO^CD36
**Q.** Does B1 bind?
**A.** no binding
